# Assay results as given in PMC8376106, “NAD^+ pool depletion as a signal for the Rex regulon involved in Streptococcus agalactiae virulence” (PLoS Pathogens, 2021).
# Where two headings read alike, the source gives them in different places.
# T1: Rex (Gbs1167) (Streptococcus agalactiae NEM316, UniProt Q8E565 1-212)
# T1 sequence: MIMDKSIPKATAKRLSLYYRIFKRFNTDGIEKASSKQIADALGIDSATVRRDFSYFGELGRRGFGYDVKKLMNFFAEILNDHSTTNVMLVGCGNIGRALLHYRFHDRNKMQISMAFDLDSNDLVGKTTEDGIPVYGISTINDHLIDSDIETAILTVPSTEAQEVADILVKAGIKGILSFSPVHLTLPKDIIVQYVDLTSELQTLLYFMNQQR
# B1: ldh_m2 (C19T, C21T) (dsDNA)
# DNA 1: TTTGTTTGCAAATTTTTTTATATTTTAT
# DNA 2: ATAAAATATAAAAAAATTTGCAAACAAA
# B2: Streptococcus agalactiae (GBS) strain NEM316 redox-sensing transcriptional repressor Rex (Gbs1167) (natural protein, Streptococcus agalactiae strain NEM316)
# chain: T1 sequence
# notes: also called GBS Rex; native Rex; source: E. coli TUNER (DE3), pET101-Strex, purified (Q-Sepharose, Superdex 75, 5' AMP-Sepharose 4B)
# B3: ldh_m3 (C9T, A10G) (dsDNA)
# DNA 1: TTTGTTTGTGAATTTTTTCACATTTTAT
# DNA 2: ATAAAATGTGAAAAAATTCACAAACAAA
# B4: ROP 22-mer palindrome (dsDNA)
# DNA 1: AATTGTGAAATATTTCACAATT
# DNA 2: AATTGTGAAATATTTCACAATT
# B5: ldh operator 28 bp (dsDNA)
# DNA 1: TTTGTTTGCAAATTTTTTCACATTTTAT
# DNA 2: ATAAAATGTGAAAAAATTTGCAAACAAA
# What was measured:
# GBS Rex (Gbs1167) = target: T2, GBS Rex (Gbs1167) (Streptococcus agalactiae, UniProt Q8E565); test: isothermal titration calorimetry, one-site fit; format: binding
# T2 construct: native Rex from pET101-Strex in E. coli TUNER (DE3), no tag used in purification; apo form eluted from 5' AMP-Sepharose; homodimer
# Text: isothermal titration calorimetry, one-site fit on GBS Rex (Gbs1167)
# Rex (Gbs1167) [1] = target: T1, Rex (Gbs1167); test: ITC and EMSA; details: apo Rex in ITC; n = 2.2 +/- 0.2 (one dimer per DNA); EMSA: 20 mM Tris pH 8.0, 1 mM EDTA, 75 mM KCl, 1 mM DTT, 10 ug/ml BSA, 10% glycerol, 30 C, 20 min, 30 nM DNA (promoter fragments). ITC: 100 mM potassium …
# Rex (Gbs1167) [2] = target: T1, Rex (Gbs1167); test: ITC; details: NAD+; EMSA: 20 mM Tris pH 8.0, 1 mM EDTA, 75 mM KCl, 1 mM DTT, 10 ug/ml BSA, 10% glycerol, 30 C, 20 min, 30 nM DNA (promoter fragments). ITC: 100 mM potassium …
# Rex (Gbs1167) [3] = target: T1, Rex (Gbs1167); test: EMSA; EMSA: 20 mM Tris pH 8.0, 1 mM EDTA, 75 mM KCl, 1 mM DTT, 10 ug/ml BSA, 10% glycerol, 30 C, 20 min, 30 nM DNA (promoter fragments). ITC: 100 mM potassium phosphate pH 7.5, 25 C. Crystals: 25% PEG 1500, MIB buffer pH 5.0, 20 C.; details: protein: recombinant; tags: none (native, pET101-Strex); chain copies: 2; label: 32P; (only forward strand given)
# crystal structure = target: the molecule itself; test: crystal structure
# Rex (Gbs1167) [4] = target: T1, Rex (Gbs1167); test: EMSA; same as native ldh operator; EMSA: 20 mM Tris pH 8.0, 1 mM EDTA, 75 mM KCl, 1 mM DTT, 10 ug/ml BSA, 10% glycerol, 30 C, 20 min, 30 nM DNA (promoter fragments). ITC: 100 mM potassium phosphate pH 7.5, 25 C. Crystals: 25% PEG 1500, MIB buffer pH 5.0, 20 C.; details: protein: recombinant; tags: none (native, pET101-Strex); chain copies: 2; label: 32P; (only forward strand given)
# Rex (Gbs1167) [5] = target: T1, Rex (Gbs1167); test: X-ray crystallography (2.4 A); NAD+; Mg2+ ion located; EMSA: 20 mM Tris pH 8.0, 1 mM EDTA, 75 mM KCl, 1 mM DTT, 10 ug/ml BSA, 10% glycerol, 30 C, 20 min, 30 nM DNA (promoter fragments). ITC: 100 mM potassium phosphate pH 7.5, 25 C. Crystals: 25% PEG 1500, MIB buffer pH 5.0, 20 C.; details: protein: recombinant; tags: none (native, pET101-Strex); chain copies: 2; blunt; self-complementary, 2 strand copies
molecule,measurement,setting,value
NC(=O)C1=CN([C@@H]2O[C@H](COP(=O)(O)OP(=O)(O)OC[C@H]3O[C@@H](n4cnc5c(N)ncnc54)[C@H](OP(=O)(O)O)[C@@H]3O)[C@@H](O)[C@H]2O)C=CC1 [NADPH],Kd,GBS Rex (Gbs1167),143 µM
NC(=O)c1ccc[n+]([C@@H]2O[C@H](COP(=O)(O)OP(=O)(O)OC[C@H]3O[C@@H](n4cnc5c(N)ncnc54)[C@H](O)[C@@H]3O)[C@@H](O)[C@H]2O)c1 [NAD^+],Kd,GBS Rex (Gbs1167),76.9 µM
NC(=O)C1=CN([C@@H]2O[C@H](COP(=O)(O)OP(=O)(O)OC[C@H]3O[C@@H](n4cnc5c(N)ncnc54)[C@H](O)[C@@H]3O)[C@@H](O)[C@H]2O)C=CC1 [NADH],Kd,GBS Rex (Gbs1167),0.357 µM
ROP-DNA used in ITC (sequence not specified),Kd,Rex (Gbs1167) [1],0.03 µM
same,binding signal (fold affinity vs apo Rex),Rex (Gbs1167) [2],1.35
Nc1ncnc2c1ncn2[C@@H]1O[C@H](COP(=O)(O)OP(=O)(O)OP(=O)(O)O)[C@@H](O)[C@H]1O [ATP],Kd,GBS Rex (Gbs1167); read-out: Ka (M^-1)^a x 10^-6 (converted),250 µM
B1,binding result,Rex (Gbs1167) [3],no binding
B2,stoichiometry N,crystal structure,2
B3,binding result,Rex (Gbs1167) [4],binds
B4,binding result,Rex (Gbs1167) [5],binds
B5,binding result,Rex (Gbs1167) [3],binds
